{"source": "patent US9809833B2", "about": "“Pathways to adipate semialdehyde and other organic products” (BioAmber Inc., priority 2012, dated 2017)", "molecules": {"B1": {"name": "bktB: Beta-ketothiolase, E. coli optimized bktB sequence originally from Cupriavidus necator ATCC 17699, SEQ ID NOS 1 and 2 (protein)", "chain": "MTREVVVVSGVRTAIGTFGGSLKDVAPAELGALVVREALARAQVSGDDVGHVVFGNVIQTEPRDMYLGRVAAVNGGVTINAPALTVNRLCGSGLQAIVSAAQTILLGDTDVAIGGGAESMSRAPYLAPAARWGARMGDAGLVDMMLGALHDPFHRIHMGVTAENVAKEYDISRAQQDEAALESHRRASAAIKAGYFKDQIVPVVSKGRKGDVTFDTDEHVRHDATIDDMTKLRPVFVKENGTVTAGNASGLNDAAAAVVMMERAEAERRGLKPLARLVSYGHAGVDPKAMGIGPVPATKIALERAGLQVSDLDVIEANEAFAAQACAVTKALGLDPAKVNPNGSGISLGHPIGATGALITVKALHELNRVQGRYALVTMCIGGGQGIAAIFERI", "modifications": "Cupriavidus necator"}, "B2": {"name": "phaA: acyltransferase, E. coli optimized PhaA sequence originally from Ralstonia sp., EC 2.3.1.9, SEQ ID NOS 3 and 4 (protein)", "chain": "MTDVVIVSAARTAVGKFGGSLAKIPAPELGAVVIKAALERAGVKPEQVSEVIMGQVLTAGSGQNPARQAAIKAGLPAMVPAMTINKVCGSGLKAVMLAANAIMAGDAEIVVAGGQENMSAAPHVLPGSRDGFRMGDAKLVDTMIVDGLWDVYNQYHMGITAENVAKEYGITREAQDEFAVGSQNKAEAAQKAGKFDEEIVPVLIPQRKGDPVAFKTDEFVRQGATLDSMSGLKPAFDKAGTVTAANASGLNDGAAAVVVMSAAKAKELGLTPLATIKSYANAGVDPKVMGMGPVPASKRALSRAEWTPQDLDLMEINEAFAAQALAVHQQMGWDTSKVNVNGGAIAIGHPIGASGCRILVTLLHEMKRRDAKKGLASLCIGGGMGVALAVERK", "modifications": "Ralstonia sp., strain EMBL EON20543.1"}}, "key": {"[1]": {"assay": "In vitro DTNB thiolase activity assay on clarified cell lysates, butyryl-CoA substrate", "format": "biochemical", "conditions": "lysate of BL21 E. coli expressing the thiolase; 0.5 mM butyryl-CoA, 0.2 mM acetyl-coA, 0.5 mM DTNB, pH 7.4, 412 nm; no-substrate background subtracted; triplicate", "method": "(§1) Plasmids containing the optimized thiolase genes were transformed into BL21 E. coli cells. Empty plasmid pTrcHisA was also transformed as a negative control. For expression and characterization experiments, shake flasks containing 40 mL TB were innoculated at 5% from overnight cultures. Flasks were incubated at 30° C. at 250 rpm shaking for 2 hours, then protein production was induced with 0.2 mM IPTG and incubated for 4 more hours at 30° C. while shaking. Cells were harvested by centrifugation and pellets were stored at −80° C.\n(§2) Activity of thiolase candidates were assessed with an in vitro assay using DTNB (5,5′-Dithiobis(2-nitrobenzoic acid)) as an indicator. The enzyme activity was tested using two different substrates: crotonoyl-CoA and butyryl-CoA. The DTNB interacts with the free thiol created by the condensation of acetyl-CoA and the substrate present (butyryl-CoA or crotonoyl-CoA). Unless otherwise specified, all chemicals were purchased from Sigma-Aldrich Chemical Company, ST. Louis, Mo.\n(§3) Cells were lysed using mechanical disruption using a BeadBeater (BioSpec products, Bartlesville, Okla.) using the manufacturer's instructions. The cell lysate was partially clarified by centrifugation (14,000 G for 5 minutes). Protein concentrations of the resulting clarified lysates were measured via BioRad Total Protein assay using the manufacturer's instructions. Lysates were normalized by protein concentration by dilution in 10 mM Tris buffer. The normalized lysates were diluted 1 to 5 in 10 mM Tris buffer. 20 ul of lysate was added to each well for the 96-well plate assay. Each condition was performed in triplicate.\n(§4) The reaction mixture contains 10 mM Tris pH 7.4, 5 mM MgSO4, 0.2 mM acetyl-coA, 0.5 mM DTNB, 0.5 mM substrate (either butyryl-CoA or crotonoyl-CoA). […] The reactions in these microplates were monitored at 412 nm. Readings were taken every 9 seconds for 5 minutes and the data was used to calculate activities of each enzyme. The reactions using crotonoyl-CoA as substrate required a 60 sec incubation period before rates were able to be measured."}, "[2]": {"assay": "In vitro DTNB thiolase activity assay on clarified cell lysates, crotonoyl-CoA substrate", "format": "biochemical", "conditions": "lysate of BL21 E. coli expressing the thiolase; 0.5 mM crotonoyl-CoA, 0.2 mM acetyl-coA, 0.5 mM DTNB, pH 7.4, 412 nm; 60 sec incubation before measurement; no-substrate background subtracted; triplicate", "method": "as §1, §2, §3, §4"}}}
{"molecule": "thl: acetyl-CoA acetyltransferase, E. coli optimized thl sequence originally from Clostridium acetobutylicum ATCC 824, SEQ ID NOS 5 and 6", "values": [{"measurement": "Average Activity with background subtracted, Butyryl coenzyme A", "setting": "[1]", "value": 0.039, "unit": "µmol/min/mg"}, {"measurement": "Average Activity with background subtracted, Crotonoyl coenzyme A", "setting": "[2]", "value": 0.0021, "unit": "µmol/min/mg"}]}
{"molecule": "B1", "values": [{"measurement": "Average Activity with background subtracted, Butyryl coenzyme A", "setting": "[1]", "value": 0.069, "unit": "µmol/min/mg"}, {"measurement": "Average Activity with background subtracted, Crotonoyl coenzyme A", "setting": "[2]", "value": 0.0043, "unit": "µmol/min/mg"}]}
{"molecule": "B2", "values": [{"measurement": "Average Activity with background subtracted, Butyryl coenzyme A", "setting": "[1]", "value": 0.053, "unit": "µmol/min/mg"}, {"measurement": "Average Activity with background subtracted, Crotonoyl coenzyme A", "setting": "[2]", "value": 0.0001, "unit": "µmol/min/mg"}]}
